Reference: the supplement of paper PMC10126150
± gives the standard deviation of the averaged measurements.

Tested on: ATP
Test: switch fluorescence ratio, 500 uM ATP over buffer (Cy3 cluster intensity, sum of 5 cycles each) (fold (ratio)); higher = stronger signal-on switching upon ATP binding; sequences stand for … in TCGTCGGCAGCGTCAGATGTGTATAAGAGACAGTTTTTTTTTTTTTTTTTTTTTTTTT…TC
Conditions: aptamer strand: ATP DNA aptamer (quencher-CACCTGGGGGAGTATTGCGGAGGAAGG + anchor), 100 nM annealed; ATP concentration: 500 uM
Summary of the method: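 Switching-strand clusters labelled with Cy3 on a modified Illumina MiSeq flow-cell were annealed to 100 nM quencher-labelled ATP aptamer, imaged in selection buffer, and re-imaged after 15 min with 500 uM ATP at 22 °C. This was done over five cycles with NaOH stripping and re-annealing in between. The fluorescence ratio is summed target-cycle over summed buffer-cycle Cy3 intensity per cluster, averaged per switch-domain sequence, excluding clusters outside 100-1000 RFU.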
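Further: ATP exposure 15 min at 22 °C before imaging.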

Sequence | switch fluorescence ratio
TTTCTAATAT | 1 ± 0.014
TTTCTACGCG | 1.01 ± 0.034
TTTCTAGGTC | 1.015 ± 0.0048
TTTCTAGTGA | 0.991 ± 0.047
TTTCTATGGG | 1.03 ± 0.033
TTTCTCAGTA | 1.03 ± 0.041
TTTCTCAGTC | 1 ± 0.039
TTTCTCCCTT | 1.19 ± 0.13
TTTCTCCGTT | 1.44 ± 0.55
TTTCTCGAAT | 1 ± 0.029
TTTCTCGTCG | 1 ± 0.014
TTTCTCGTCT | 0.988 ± 0.011
TTTCTCGTTC | 1.15 ± 0.21
TTTCTCTGGT | 0.993 ± 0.045
TTTCTGGCTG | 1.025 ± 0.0043
TTTCTGTGAT | 1.004 ± 0.003
TTTCTGTTTG | 1.01 ± 0.05
TTTCTTGGGG | 0.979 ± 0.018
TTTCTTGTAT | 1.02 ± 0.016
TTTCTTGTCA | 0.996 ± 0.059
TTTCTTTAAG | 0.985 ± 0.04
TTTCTTTCGT | 1.12 ± 0.16
TTTGAAAATG | 1.01 ± 0.035
TTTGAAAGGA | 1.01 ± 0.032
TTTGAACGTG | 0.969 ± 0.017
TTTGAACTTT | 0.991 ± 0.033

Sequence | switch fluorescence ratio
TTTGAAGAAA | 1.06 ± 0.033
TTTGAAGAGT | 1.04 ± 0.017
TTTGAAGGAC | 0.992 ± 0.044
TTTGAAGGGA | 0.996 ± 0.042
TTTGAAGTGT | 0.997 ± 0.02
TTTGAATCG | 1.01 ± 0.021
TTTGAATTCA | 1.19 ± 0.22
TTTGACAGTG | 0.966 ± 0.071
TTTGACCAGG | 1.02 ± 0.045
TTTGACCGTT | 0.988 ± 0.035
TTTGACGG | 0.972 ± 0.023
TTTGACGGAA | 1.27 ± 0.28
TTTGACGTTT | 1.02 ± 0.059
TTTGACTGGT | 0.984 ± 0.027
TTTGACTTGA | 0.984 ± 0.048
TTTGAGAAGA | 1.02 ± 0.012
TTTGAGACAG | 0.994 ± 0.026
TTTGAGAGTA | 0.96 ± 0.028
TTTGAGCATT | 1.04 ± 0.043
TTTGAGCCCC | 1.04 ± 0.1
TTTGAGGCAT | 1.71 ± 1.2
TTTGAGTCAG | 0.994 ± 0.035
TTTGAGTCTT | 1 ± 0.039
TTTGATACCC | 0.991 ± 0.064
TTTGATACTC | 1.15 ± 0.091
TTTGATACTG | 1.06 ± 0.11

Sequence | switch fluorescence ratio
TTTGATAGTC | 0.966 ± 0.07
TTTGATATGT | 0.996 ± 0.039
TTTGATCTT | 0.974 ± 0.03
TTTGATGCAG | 0.993 ± 0.032
TTTGATGTGT | 0.997 ± 0.032
TTTGCAATGT | 1.29 ± 0.1
TTTGCAGCTT | 1.49 ± 0.87
TTTGCATGCC | 1.05 ± 0.085
TTTGCATTGT | 1.03 ± 0.035
TTTGCCCCGG | 1.12 ± 0.12
TTTGCCGGAG | 1.08 ± 0.065
TTTGCCTCCG | 2.15 ± 1.7
TTTGCCTCGG | 0.984 ± 0.031
TTTGCGG | 1.009 ± 0.0082
TTTGCGGGTG | 1.6 ± 0.91
TTTGCGTTTT | 1.01 ± 0.025
TTTGCTGGGA | 0.9812 ± 0.0098
TTTGCTGGTT | 1.02 ± 0.071
TTTGCTTAAC | 1.07 ± 0.13
TTTGGAAA | 1.01 ± 0.033
TTTGGAAATG | 1.0077 ± 0.00015
TTTGGAAGGG | 1 ± 0.026
TTTGGACCGA | 1.03 ± 0.016
TTTGGACGCT | 1.04 ± 0.038
TTTGGAGAAT | 1.02 ± 0.025
TTTGGAGAGA | 1.001 ± 0.01

Sequence | switch fluorescence ratio
TTTGGAGATG | 1.02 ± 0.023
TTTGGAGCTT | 4.01 ± 2.7
TTTGGAGGAG | 0.997 ± 0.048
TTTGGAGTCT | 0.982 ± 0.031
TTTGGAGTTG | 0.987 ± 0.064
TTTGGATAGA | 0.998 ± 0.025
TTTGGATCCT | 1.02 ± 0.019
TTTGGATTCC | 0.998 ± 0.034
TTTGGCCGCT | 0.985 ± 0.011
TTTGGCGAGT | 1.01 ± 0.021
TTTGGCGCGA | 1.43 ± 0.58
TTTGGCTAAG | 0.976 ± 0.027
TTTGGCTGAG | 1.004 ± 0.009
TTTGGCTTCG | 1.042 ± 0.0038
TTTGGCTTCT | 1.04 ± 0.073
TTTGGCTTTA | 0.977 ± 0.017
TTTGGGACAT | 1.01 ± 0.025
TTTGGGAGAT | 0.951 ± 0.023
TTTGGGATAG | 1.01 ± 0.049
TTTGGGATCA | 0.9846 ± 0.0073
TTTGGGATTC | 0.979 ± 0.028
TTTGGGCACG | 1.05 ± 0.017
TTTGGGCAGT | 1 ± 0.017
TTTGGGCATT | 1.04 ± 0.035
TTTGGGCCTG | 1.001 ± 0.0022
TTTGGGCTGC | 1.28 ± 0.41

Sequence | switch fluorescence ratio
TTTGGGCTGG | 1.01 ± 0.06
TTTGGGGAAC | 1.02 ± 0.035
TTTGGGGATG | 1 ± 0.033
TTTGGGGCCC | 1.03 ± 0.041
TTTGGGGCCT | 1.06 ± 0.15
TTTGGGGCTG | 1.04 ± 0.11
TTTGGGGGAC | 0.984 ± 0.05
TTTGGGGGCT | 1.01 ± 0.04
TTTGGGGTT | 1.02 ± 0.018
TTTGGGGTTA | 0.996 ± 0.034
TTTGGGTCTG | 0.992 ± 0.026
TTTGGGTGGC | 1.03 ± 0.036
TTTGGGTTGA | 1.03 ± 0.017
TTTGGTACAC | 1.01 ± 0.021
TTTGGTCTCA | 1 ± 0.02
TTTGGTGGTC | 0.971 ± 0.022
TTTGGTTAC | 1.05 ± 0.023
TTTGGTTACA | 1.01 ± 0.04
TTTGGTTCGC | 0.971 ± 0.037
TTTGGTTGAT | 0.9967 ± 0.0087
TTTGGTTGCC | 1.05 ± 0.085
TTTGGTTTTT | 0.999 ± 0.031
TTTGTAAATA | 1.008 ± 0.0069
TTTGTAAGAA | 1.009 ± 0.006
TTTGTACCCT | 1.064 ± 0.0021
TTTGTAGGGG | 0.981 ± 0.016

Sequence | switch fluorescence ratio
TTTGTATCAT | 1.017 ± 0.0076
TTTGTATGTT | 0.991 ± 0.051
TTTGTATTCA | 1.01 ± 0.06
TTTGTCAGGG | 0.992 ± 0.062
TTTGTCCAGT | 0.991 ± 0.041
TTTGTCGTCG | 1.004 ± 0.01
TTTGTCTATA | 1 ± 0.017
TTTGTCTGGA | 0.991 ± 0.032
TTTGTGACTA | 1.01 ± 0.049
TTTGTGCCTC | 0.9528 ± 0.0093
TTTGTGGATT | 1.06 ± 0.069
TTTGTGTATG | 0.9701 ± 0.0032
TTTGTGTTGG | 0.993 ± 0.027
TTTGTTAGTG | 0.972 ± 0.021
TTTGTTCTGT | 1.01 ± 0.018
TTTGTTGATT | 0.973 ± 0.022
TTTGTTGCCA | 0.988 ± 0.0019
TTTGTTGCTC | 1 ± 0.03
TTTGTTGGGA | 1.02 ± 0.013
TTTGTTGTAA | 1.01 ± 0.034
TTTGTTGTCA | 0.974 ± 0.016
TTTGTTGTGT | 1.02 ± 0.025
TTTGTTGTTG | 0.984 ± 0.03
TTTGTTTCCA | 0.962 ± 0.012
TTTGTTTTA | 1.01 ± 0.019
TTTGTTTTCA | 0.989 ± 0.034

Sequence | switch fluorescence ratio
TTTGTTTTGA | 1.02 ± 0.027
TTTTAAAAAC | 1.05 ± 0.049
TTTTAAAACA | 1.02 ± 0.029
TTTTAAAAGA | 0.995 ± 0.027
TTTTAAAATG | 1.01 ± 0.032
TTTTAAATAA | 1.01 ± 0.026
TTTTAAATGT | 1.04 ± 0.029
TTTTAAATTG | 0.964 ± 0.023
TTTTAACATT | 1.06 ± 0.081
TTTTAACTCG | 1.01 ± 0.023
TTTTAAGAAT | 1.005 ± 0.0078
TTTTAAGCAG | 1.05 ± 0.036
TTTTAAGCCC | 1.03 ± 0.046
TTTTAAGCGG | 0.999 ± 0.015
TTTTAATATT | 1.05 ± 0.11
TTTTAATCAT | 1.6 ± 0.88
TTTTAATTCG | 1.057 ± 0.0035
TTTTAATTT | 0.997 ± 0.042
TTTTAATTTT | 0.998 ± 0.029
TTTTACAAGG | 0.983 ± 0.031
TTTTACCGAG | 1.047 ± 0.0032
TTTTACCGTA | 1.04 ± 0.034
TTTTACGTGA | 1.057 ± 0.0092
TTTTACTATG | 0.9893 ± 0.0041
TTTTACTCGA | 1.03 ± 0.014
TTTTACTTAA | 1.28 ± 0.37

Sequence | switch fluorescence ratio
TTTTACTTTA | 1.06 ± 0.032
TTTTAGAGCC | 1.04 ± 0.043
TTTTAGAGTG | 1 ± 0.036
TTTTAGATCT | 1.02 ± 0.016
TTTTAGGACC | 1 ± 0.025
TTTTAGGAGC | 0.985 ± 0.023
TTTTAGGAT | 1.004 ± 0.0021
TTTTAGGATT | 1.016 ± 0.0018
TTTTAGGGCT | 0.989 ± 0.03
TTTTAGGGTC | 1.11 ± 0.2
TTTTAGGTAT | 1.02 ± 0.038
TTTTAGGTTA | 0.986 ± 0.027
TTTTAGGTTT | 1.06 ± 0.16
TTTTAGTAAC | 1.02 ± 0.017
TTTTAGTCTT | 1.04 ± 0.078
TTTTAGTTAC | 1.073 ± 0.0044
TTTTAGTTAT | 1.04 ± 0.037
TTTTAGTTCG | 1 ± 0.028
TTTTATAAAG | 1 ± 0.022
